Measured values: paper PMC4024219

Molecular target: FKBP-caspase-8 (Site-1 mutant) (human) (UniProt Q14790)

activity after heterodimerization (with AP21967), relative to Mature caspase-8: 20%
Substance: FRB-FLIPL (wt) (from UniProt O15519 188-480)
